Reference: US20240182536A1 (MURAL ONCOLOGY, published 2024)

T1: IL-18 receptors on HEK-Blue IL-18 reporter cells (UniProt Q13478 19-541; O95256 20-599, limits assumed)
T1 sequence (looked up) 1: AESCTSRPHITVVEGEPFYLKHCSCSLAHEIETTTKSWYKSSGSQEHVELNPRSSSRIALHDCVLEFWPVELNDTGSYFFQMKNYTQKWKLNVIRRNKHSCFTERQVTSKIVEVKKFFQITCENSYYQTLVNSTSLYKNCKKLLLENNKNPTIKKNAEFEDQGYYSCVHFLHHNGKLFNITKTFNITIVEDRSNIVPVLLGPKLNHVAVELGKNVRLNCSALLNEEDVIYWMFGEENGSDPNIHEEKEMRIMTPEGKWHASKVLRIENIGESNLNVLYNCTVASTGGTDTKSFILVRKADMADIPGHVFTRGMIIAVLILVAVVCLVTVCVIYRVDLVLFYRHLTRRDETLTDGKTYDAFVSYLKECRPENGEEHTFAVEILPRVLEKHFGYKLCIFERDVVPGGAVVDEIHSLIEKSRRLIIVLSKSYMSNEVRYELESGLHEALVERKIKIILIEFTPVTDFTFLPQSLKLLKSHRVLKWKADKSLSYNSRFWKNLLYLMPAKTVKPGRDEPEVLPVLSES
T1 sequence (looked up) 2: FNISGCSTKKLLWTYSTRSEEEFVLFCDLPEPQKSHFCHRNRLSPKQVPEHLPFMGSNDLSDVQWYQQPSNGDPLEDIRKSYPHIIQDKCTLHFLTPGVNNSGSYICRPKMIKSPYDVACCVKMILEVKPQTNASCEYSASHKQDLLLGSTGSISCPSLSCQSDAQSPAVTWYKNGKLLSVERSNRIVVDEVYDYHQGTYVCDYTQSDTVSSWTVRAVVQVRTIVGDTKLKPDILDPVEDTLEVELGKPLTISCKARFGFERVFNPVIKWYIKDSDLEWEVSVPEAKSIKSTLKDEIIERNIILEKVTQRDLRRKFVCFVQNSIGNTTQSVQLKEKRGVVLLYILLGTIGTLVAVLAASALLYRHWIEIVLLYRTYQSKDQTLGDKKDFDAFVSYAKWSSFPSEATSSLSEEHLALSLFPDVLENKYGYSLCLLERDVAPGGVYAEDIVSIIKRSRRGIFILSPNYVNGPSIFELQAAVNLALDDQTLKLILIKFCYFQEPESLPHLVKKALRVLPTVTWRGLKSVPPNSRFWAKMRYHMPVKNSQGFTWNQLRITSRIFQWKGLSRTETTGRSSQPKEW

T2: human IL-18 binding protein (human, UniProt O95998 31-194)
T2 sequence (looked up): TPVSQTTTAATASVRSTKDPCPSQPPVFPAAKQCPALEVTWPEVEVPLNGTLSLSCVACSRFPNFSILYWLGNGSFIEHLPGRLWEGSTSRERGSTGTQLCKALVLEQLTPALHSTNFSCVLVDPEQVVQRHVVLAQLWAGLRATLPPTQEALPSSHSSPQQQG


Tests used:
[1] = biological target: T1, IL-18 receptors on HEK-Blue IL-18 …; test: cell-based or functional assay
[2] = biological target: T2, human IL-18 binding protein; test: cell-based or functional assay

| Binder | HEK-Blue activity, No BP, DF-10000 [1] | HEK-Blue activity, No BP, DF-100,000 [1] | HEK-Blue activity, No BP, DF-1,000,000 [1] | HEK-Blue activity, +100 nM BP, DF-10000 [2] | HEK-Blue activity, +100 nM BP, DF-100,000 [2] | HEK-Blue activity, +100 nM BP, DF-1,000,000 [2] | Ratio (-BP/+BP), DF-10000 [2] | Ratio (-BP/+BP), DF-100,000 [2] | Ratio (-BP/+BP), DF-1,000,000 [2] |
| --- | --- | --- | --- | --- | --- | --- | --- | --- | --- |
| yeast display IL-18 variant K53S, S55Y (ligand) YFGKLESKLSVIRNLNDQVLFIDQGNRPLFEDMTDSDMRDNAPRTIFIISMYSDYQPRGMAVTISVKSEKISTLSSENKIISFKEMNPPDNIKDTKSDIIFFQRSVPGHDNKMQFESSSYEGYFLASEKERDLFKLILKKEDELGDRSIMFTVQNED | 1.41 | 0.54 | 0.19 | 1.52 | 0.55 | 0.21 | 0.93 | 0.97 | 0.9 |
| yeast display IL-18 variant K53D, S55N (ligand) YFGKLESKLSVIRNLNDQVLFIDQGNRPLFEDMTDSDMRDNAPRTIFIISMYDDNQPRGMAVTISVKSEKISTLSSENKIISFKEMNPPDNIKDTKSDIIFFQRSVPGHDNKMQFESSSYEGYFLASEKERDLFKLILKKEDELGDRSIMFTVQNED | 0.45 | 0.13 | 0.09 | 0.47 | 0.12 | 0.09 | 0.95 | 1.05 | 1 |
| yeast display IL-18 variant K53T, S55M, R58K (ligand) YFGKLESKLSVIRNLNDQVLFIDQGNRPLFEDMTDSDMRDNAPRTIFIISMYTDMQPKGMAVTISVKSEKISTLSSENKIISFKEMNPPDNIKDTKSDIIFFQRSVPGHDNKMQFESSSYEGYFLASEKERDLFKLILKKEDELGDRSIMFTVQNED | 0.78 | 0.2 | 0.12 | 0.72 | 0.21 | 0.17 | 1.08 | 0.92 | 0.72 |
| yeast display IL-18 variant K53G, S55I (ligand) YFGKLESKLSVIRNLNDQVLFIDQGNRPLFEDMTDSDMRDNAPRTIFIISMYGDIQPRGMAVTISVKSEKISTLSSENKIISFKEMNPPDNIKDTKSDIIFFQRSVPGHDNKMQFESSSYEGYFLASEKERDLFKLILKKEDELGDRSIMFTVQNED | 0.59 | 0.14 | 0.09 | 0.76 | 0.19 | 0.13 | 0.77 | 0.73 | 0.7 |
| yeast display IL-18 variant K53W, S55A (ligand) YFGKLESKLSVIRNLNDQVLFIDQGNRPLFEDMTDSDMRDNAPRTIFIISMYWDAQPRGMAVTISVKSEKISTLSSENKIISFKEMNPPDNIKDTKSDIIFFQRSVPGHDNKMQFESSSYEGYFLASEKERDLFKLILKKEDELGDRSIMFTVQNED | 0.28 | 0.13 | 0.11 | 0.31 | 0.16 | 0.13 | 0.89 | 0.84 | 0.84 |
| yeast display IL-18 variant K53G, S55V (ligand) YFGKLESKLSVIRNLNDQVLFIDQGNRPLFEDMTDSDMRDNAPRTIFIISMYGDVQPRGMAVTISVKSEKISTLSSENKIISFKEMNPPDNIKDTKSDIIFFQRSVPGHDNKMQFESSSYEGYFLASEKERDLFKLILKKEDELGDRSIMFTVQNED | 0.56 | 0.15 | 0.1 | 0.57 | 0.15 | 0.1 | 0.98 | 1.01 | 1.03 |
| yeast display IL-18 variant K53T, S55F (ligand) YFGKLESKLSVIRNLNDQVLFIDQGNRPLFEDMTDSDMRDNAPRTIFIISMYTDFQPRGMAVTISVKSEKISTLSSENKIISFKEMNPPDNIKDTKSDIIFFQRSVPGHDNKMQFESSSYEGYFLASEKERDLFKLILKKEDELGDRSIMFTVQNED | 0.67 | 0.2 | 0.16 | 0.6 | 0.18 | 0.25 | 1.12 | 1.09 | 0.64 |
| yeast display IL-18 variant S36E, D37E, D40K, N41T, K53T, S55Q, R104H (ligand) YFGKLESKLSVIRNLNDQVLFIDQGNRPLFEDMTDEEMRKTAPRTIFIISMYTDQQPRGMAVTISVKSEKISTLSSENKIISFKEMNPPDNIKDTKSDIIFFQHSVPGHDNKMQFESSSYEGYFLASEKERDLFKLILKKEDELGDRSIMFTVQNED | 0.81 | 0.22 | 0.17 | 0.81 | 0.21 | 0.14 | 1 | 1.01 | 1.22 |
| yeast display IL-18 variant T34I, S36T, D40A, N41M, K53T, S55Y (ligand) YFGKLESKLSVIRNLNDQVLFIDQGNRPLFEDMIDTDMRAMAPRTIFIISMYTDYQPRGMAVTISVKSEKISTLSSENKIISFKEMNPPDNIKDTKSDIIFFQRSVPGHDNKMQFESSSYEGYFLASEKERDLFKLILKKEDELGDRSIMFTVQNED | 0.38 | 0.18 | 0.14 | 0.37 | 0.12 | 0.12 | 1.03 | 1.45 | 1.18 |
| yeast display IL-18 variant L5W, I22M, K53N, S55Y, Q56H (ligand) YFGKWESKLSVIRNLNDQVLFMDQGNRPLFEDMTDSDMRDNAPRTIFIISMYNDYHPRGMAVTISVKSEKISTLSSENKIISFKEMNPPDNIKDTKSDIIFFQRSVPGHDNKMQFESSSYEGYFLASEKERDLFKLILKKEDELGDRSIMFTVQNED | 0.75 | 0.21 | 0.13 | 0.72 | 0.23 | 0.21 | 1.05 | 0.91 | 0.61 |
| yeast display IL-18 variant E6D, S36F, K53T, S55M, R58K (ligand) YFGKLDSKLSVIRNLNDQVLFIDQGNRPLFEDMTDFDMRDNAPRTIFIISMYTDMQPKGMAVTISVKSEKISTLSSENKIISFKEMNPPDNIKDTKSDIIFFQRSVPGHDNKMQFESSSYEGYFLASEKERDLFKLILKKEDELGDRSIMFTVQNED | 0.48 | 0.14 | 0.09 | 0.5 | 0.14 | 0.09 | 0.96 | 1.02 | 0.96 |
| yeast display IL-18 variant K53N, S55I (ligand) YFGKLESKLSVIRNLNDQVLFIDQGNRPLFEDMTDSDMRDNAPRTIFIISMYNDIQPRGMAVTISVKSEKISTLSSENKIISFKEMNPPDNIKDTKSDIIFFQRSVPGHDNKMQFESSSYEGYFLASEKERDLFKLILKKEDELGDRSIMFTVQNED | 0.32 | 0.11 | 0.09 | 0.29 | 0.11 | 0.09 | 1.1 | 1 | 0.99 |
